This is an account of results in US20030092613A1, “Alpha7 nicotinic receptor peptides as ligands for beta amyloid peptides” (priority 2000, published 2003).

The target in this assay is β-amyloid1-42 (UniProt P05067). The assay can be described thus: cell-based or functional assay.

Molecule Ac-SERFYECCKEP-NH2 (also: cyclic, bridge not given here) [cyclic peptide (Ac)…-amide] showed an ACh rel % Inh @ 100 µM of 81% and an Inh ACh rel IC50 of 316 nM.
